Laboratory results taken from patent US20240270826A1 (NATIONAL RESEARCH COUNCIL OF CANADA, published 2024).

B1: NRCoV2-17 VHH-Fc (Fc fusion)
chain: EVQLQQSGGGLVQTGGSLRLSCAAAGSPFSQLAMSWYRQISGKERAWVASISPTGNRSYSKIAKGRFTISRDNAKNTVTLQMTSLKPEDTAAYICQAANVNGGDYWGQGTQVTVSS
notes: bivalent VHH-Fc
B2: NRCoV2-14 VHH-Fc (Fc fusion)
chain: EVQLVSSGGGLVQAGGSLRLSCEASGTTFSHYAVGWYRQAPGKQREWVASISVFGSTTYGGSVAGRFTISRDNDKNTVDLQMNSLKPEDTAVYYCHAVNADIGGDYWGQGTQVTVSS
notes: bivalent VHH-Fc
B3: NRCoV2-15 VHH-Fc (Fc fusion)
chain: EVQLVSSGGGLVEAGGSLRLSCIASGSTSGRNTMGWFRQAPGKQREWVAIVSTSGATNYAGSVKGRFTLSRDNAKNAVYLQMNNLKPEDTAVYYCYAAYGGGGDYWGQGTQVTVSS
notes: bivalent VHH-Fc
B4: NRCoV2-04 VHH-Fc (Fc fusion)
chain: AVQLVDSGGGLVQPGGSLRLSCAASGSPFSNVVMAWYRQAPGKQRERVAFISGGGIADYIMSVKGRFTISRDNAKNTVYLQMNSLKPEDTAVYYCWSSYESTWGQGTQVTVSS
notes: bivalent VHH-Fc
B5: NRCoV2-SR01 VHH-Fc (Fc fusion)
chain: EVQLVQSGGGSVQAGGSLRLSCVASGFTFDNYAIGWFRQAPGKEREGVSCISGNGGVTIYADSVKGRFTISRDNAKNLVYLQMNSLKPEDTAVYYCAATGIRSTWSVYGCSRLAGPYDYWGQGTQVTVSS
notes: bivalent VHH-Fc
B6: NRCoV2-10 VHH-Fc (Fc fusion)
chain: QLQLQESGGGLVQPGGSLTLSCAASGNTFSRSNMHWYRQAPGAQREWVAAISSRGISTYAYSAKGRFTISRDNAKNTVSLQMNSLKPEDTAVYYCYAADDLGDYWGQGTQVTVSS
notes: bivalent VHH-Fc
B7: NRCoV2-11 VHH-Fc (Fc fusion)
chain: EVQLVSSGGGLVQPGGSLRLSCAASGSSLDSYSVSWFRQAPGKEREWISFISRYYSSTYYTDSVKGRFTTSRDGDQKTVHLQMNSLKPEDTAVYYCAARSRDFSSPFSATDTYTSWGQGTQVTVSS
notes: bivalent VHH-Fc
B8: NRCoV2-20 VHH-Fc (Fc fusion)
chain: EVQLQQSGGGLVQPGGSLRLSCAASGRTFSNYVVGWFRQAPQAPGKDHEFVAVISGSDTETYYADSVKGRFTISRDNAKNTVYLQMNSLKPEDTAVYYCAADRGMSYYYTRATEYYYWGQGTQVTVSS
notes: bivalent VHH-Fc
B9: NRCoV2-12 VHH-Fc (Fc fusion)
chain: EVQLQQSGGGLVQAGGSLRLSCAASGRTFRNYVMGWFRQAPQAPGKDHEFVAAISWGGTEIYYADSVKGRFTISRDNAKNTVYLQMNSLKPEDTAVYYCAADRGLSYYYTRTTEYNYWGQGTQVTVSS
notes: bivalent VHH-Fc
B10: NRCoV2-MRed04 VHH-Fc (Fc fusion)
chain: EVQLVESGGGLVQPGRSLRLSCAASGNSFSISTMGWFRQAPGKERELVASIWSDTTTSYADSVKGRFTISTDNTRTKVYLQMSSLNPEDTAVYYCAADRGFVVRGQYDYWGQGTQVTVSS
notes: bivalent VHH-Fc
B11: NRCoV2-17 VHH-Fc (Fc fusion)
chain: B1 chain
notes: bivalent VHH-Fc
B12: NRCoV2-05 VHH-Fc (Fc fusion)
chain: EVKLVQSGGGLVQPGGSLRLSCAASGFIFSNYAMNWVRQAPGKGLEWVSGINSGGGDTRYADSVKGRFTVSRDNAKNTLYLQMNSLKPEDTGVYYCSKGPVSSYYGSGYDYRGQGTQVTVSS
notes: bivalent VHH-Fc
B13: NRCoV2-14 VHH-Fc (Fc fusion)
chain: B2 chain
notes: bivalent VHH-Fc
B14: NRCoV2-15 VHH-Fc (Fc fusion)
chain: B3 chain
notes: bivalent VHH-Fc
B15: NRCoV2-04 VHH-Fc (Fc fusion)
chain: B4 chain
notes: bivalent VHH-Fc
B16: NRCoV2-12 VHH-Fc (Fc fusion)
chain: B9 chain
notes: bivalent VHH-Fc
B17: NRCoV2-SR01 VHH-Fc (Fc fusion)
chain: B5 chain
notes: bivalent VHH-Fc
B18: NRCoV2-1d VHH-Fc (Fc fusion)
chain: EVQLVESGGGSVQPGGSLRLSCAASGSTLDYYAIGWFRQAPGKEREWVSSVSSSDGNTLYADSVKGRFTISRDNAKNTVYLQMNSLKAEDTAVYVCAADYSMRPFAVGRWHRDYEYWGQGTQVTVSS
notes: bivalent VHH-Fc
B19: NRCoV2-SR13 VHH-Fc (Fc fusion)
chain: EVQLVESGGGLVTTGGSLRLSCATSGSRFGSKHMAWYRQAPGKQRDLVAAISSGGSTHYGSSVKGRFTISRDNAKSTVYLQMNSLNPEDTAVFYCNMGGWDYRSNTYIPGSRSDYWGQGTQVTVSS
notes: bivalent VHH-Fc
B20: NRCoV2-07 VHH-Fc (Fc fusion)
chain: QVQLVQSGGGLVQPGGSLRLSCAASGVTLDYYAIGWFRQAPGKEREAVSCISSNGRRNHYVASVRGRFTISRDNAKSTVYLQMNSLKPEDTAVYYCAAVQDVHGDNYYCTSPNEYNVWGQGTQVTVSS
notes: bivalent VHH-Fc
B21: NRCoV2-10 VHH-Fc (Fc fusion)
chain: B6 chain
notes: bivalent VHH-Fc
B22: NRCoV2-SR02 VHH-Fc (Fc fusion)
chain: EVQLVDSGGGLVQAGGSLRLSCTASEFTLNYYSIGWFRQSPGKEREGVSCIRYSGGGIDYADSVKGRFTISRDNAKNTVYLTMNSLKPEDTAVYYCAADRLYSRACPTAGGRNYWGQGTQVTVSS
notes: bivalent VHH-Fc
B23: NRCoV2-MRed05 VHH-Fc (Fc fusion)
chain: EVQLVESGGGLVQPGGSLRLSCAASGFTLDYYAIGWFRQAPGKEREGVSCISSSDGSTLYADSVKGRFTISRDNAKNTVYLQMNSLKPEDTAVYYCATGPQAYYSGSYYFQCPQAGMDYWGKGTQVTVSS
notes: bivalent VHH-Fc
B24: NRCoV2-11 VHH-Fc (Fc fusion)
chain: B7 chain
notes: bivalent VHH-Fc
B25: NRCoV2-18 VHH-Fc (Fc fusion)
chain: EVQLVESGGGLVQAGGSLRLSCVASGITISGYNMAWWRQTRGKQTERVAFINSGGSTTYSDSVKGRFTISRDNGKNTAYLQMNSLNAEDTADYFCSLHTSHDYWGQGTQVTVSS
notes: bivalent VHH-Fc
B26: NRCoV2-02 VHH-Fc (Fc fusion)
chain: EVQLVESGGGLVQAGGSLRLSCAASGFTFSNYAMNWVRQAPGKGLEWVSGISGRGDDTRYADSVKGRFTISRDNAKNTLFLQMRSLRPEDTGVYRCTKGPDLYYFGSGYSDRGQGTQVTVSS
notes: bivalent VHH-Fc
B27: NRCoV2-20 VHH-Fc (Fc fusion)
chain: B8 chain
notes: bivalent VHH-Fc

target: Human SARS-CoV-2 Omicron (B.1.1.529) S (SARS-CoV-2 (Omicron variant)); assay: flow cytometry SVNA: VHH-Fc inhibits S binding to ACE2 on Vero E6 cells

Q: How did the IC50 turn out when B1 was run?
A: 3.4 nM

Q: For B2, which IC50 is on record?
A: 5.2 nM

Q: How did the IC50 turn out when B3 was run?
A: 3 nM

Q: How did the IC50 turn out when B4 was run?
A: 18.4 nM

Q: B5 was tested. Which IC50 did it give?
A: 4.4 nM

Q: With B6 as the binder, how does the IC50 read?
A: 4.3 nM

Q: For B7, which IC50 is on record?
A: 8.8 nM

Q: For B8, which IC50 is on record?
A: 13.1 nM

Q: B9 was tested. Which IC50 did it give?
A: 17.2 nM

target: SARS-CoV-2 spike protein S on live virus, Alpha variant (SARS-CoV-2 (Alpha variant), UniProt P0DTC2 14-1273); assay: cell-based or functional assay

Q: With B10 as the binder, how does the “LVNA IC50” value read?
A: 4.5 nM

Q: For B11, which “LVNA IC50” value is on record?
A: 0.61 nM

Q: How did the “LVNA IC50” value turn out when B12 was run?
A: 0.03 nM

Q: For B13, which “LVNA IC50” value is on record?
A: 0.88 nM

Q: Which “LVNA IC50” value does the source give for B14 here?
A: 0.16 nM

Q: With B15 as the binder, how does the “LVNA IC50” value read?
A: 2.3 nM

Q: Which “LVNA IC50” value does the source give for B16 here?
A: 1.35 nM

Q: Which “LVNA IC50” value does the source give for B17 here?
A: 3.77 nM

Q: With B18 as the binder, how does the “LVNA IC50” value read?
A: 0.37 nM

Q: B19 was tested. Which “LVNA IC50” value did it give?
A: ~100 nM

Q: B20 was tested. Which “LVNA IC50” value did it give?
A: 0.42 nM

Q: For B21, which “LVNA IC50” value is on record?
A: 0.47 nM

Q: With B22 as the binder, how does the “LVNA IC50” value read?
A: 9.05 nM

Q: How did the “LVNA IC50” value turn out when B23 was run?
A: 0.13 nM

Q: Which “LVNA IC50” value does the source give for B24 here?
A: 2.3 nM

Q: Which “LVNA IC50” value does the source give for B25 here?
A: 2.82 nM

Q: B26 was tested. Which “LVNA IC50” value did it give?
A: 0.09 nM

Q: With B27 as the binder, how does the “LVNA IC50” value read?
A: 1.94 nM
